# Measurements from article PMC6051491, “Dynamic structure mediates halophilic adaptation of a DNA polymerase from the deep-sea brines of the Red Sea”.
# T1: KODBR3thumb Pol (Thermococcus kodakarensis / BR3 chimera, UniProt P77933 1-406+767-851+1389-1479+A0A133VA65:621-805, internal_change)
# T1 sequence: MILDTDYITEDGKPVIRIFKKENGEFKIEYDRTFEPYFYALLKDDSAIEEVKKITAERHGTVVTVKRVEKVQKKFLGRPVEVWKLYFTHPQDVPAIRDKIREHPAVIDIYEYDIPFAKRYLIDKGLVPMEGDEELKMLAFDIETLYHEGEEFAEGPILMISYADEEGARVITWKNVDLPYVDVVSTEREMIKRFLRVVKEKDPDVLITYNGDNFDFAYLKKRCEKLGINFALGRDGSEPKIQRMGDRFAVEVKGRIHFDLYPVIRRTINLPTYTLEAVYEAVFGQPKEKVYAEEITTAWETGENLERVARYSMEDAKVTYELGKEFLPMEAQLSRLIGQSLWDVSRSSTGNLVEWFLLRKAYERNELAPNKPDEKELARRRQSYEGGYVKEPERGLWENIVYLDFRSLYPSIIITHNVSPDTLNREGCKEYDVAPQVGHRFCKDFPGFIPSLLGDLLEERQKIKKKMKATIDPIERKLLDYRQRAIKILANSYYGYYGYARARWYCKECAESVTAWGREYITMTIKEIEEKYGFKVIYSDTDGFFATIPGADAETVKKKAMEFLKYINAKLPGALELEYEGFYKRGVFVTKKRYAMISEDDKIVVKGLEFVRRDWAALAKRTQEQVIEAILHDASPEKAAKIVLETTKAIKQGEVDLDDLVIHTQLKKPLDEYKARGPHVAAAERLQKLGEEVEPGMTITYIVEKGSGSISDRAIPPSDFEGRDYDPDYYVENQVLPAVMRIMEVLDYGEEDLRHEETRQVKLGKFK
# T2: KOD Pol WT (Thermococcus kodakarensis, UniProt P77933 1-406+767-851+1389-1671, internal_change)
# T2 sequence: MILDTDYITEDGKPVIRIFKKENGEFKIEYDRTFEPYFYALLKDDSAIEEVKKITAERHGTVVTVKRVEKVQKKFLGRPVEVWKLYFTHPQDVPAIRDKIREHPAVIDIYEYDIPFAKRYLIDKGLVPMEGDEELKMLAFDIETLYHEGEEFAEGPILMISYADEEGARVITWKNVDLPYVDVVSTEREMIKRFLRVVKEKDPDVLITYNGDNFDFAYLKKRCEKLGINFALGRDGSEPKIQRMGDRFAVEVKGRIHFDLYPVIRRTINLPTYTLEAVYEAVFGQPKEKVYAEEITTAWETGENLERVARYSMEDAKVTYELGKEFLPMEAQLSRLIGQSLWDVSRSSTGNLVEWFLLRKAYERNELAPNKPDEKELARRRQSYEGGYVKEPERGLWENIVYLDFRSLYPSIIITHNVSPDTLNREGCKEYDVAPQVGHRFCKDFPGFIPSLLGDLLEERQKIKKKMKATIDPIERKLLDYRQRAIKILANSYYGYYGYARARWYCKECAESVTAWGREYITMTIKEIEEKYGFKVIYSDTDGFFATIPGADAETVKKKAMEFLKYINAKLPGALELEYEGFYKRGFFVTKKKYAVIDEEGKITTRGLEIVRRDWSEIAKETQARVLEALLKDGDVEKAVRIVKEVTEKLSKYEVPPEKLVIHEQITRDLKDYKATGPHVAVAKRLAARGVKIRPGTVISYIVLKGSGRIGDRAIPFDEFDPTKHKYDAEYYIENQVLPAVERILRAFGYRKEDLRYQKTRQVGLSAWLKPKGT
# T3: KODBR3exo Pol (Thermococcus kodakarensis / BR3 chimera, UniProt P77933 1-130+A0A133VA65:160-367+329-406+767-851+1389-1671, internal_change)
# T3 sequence: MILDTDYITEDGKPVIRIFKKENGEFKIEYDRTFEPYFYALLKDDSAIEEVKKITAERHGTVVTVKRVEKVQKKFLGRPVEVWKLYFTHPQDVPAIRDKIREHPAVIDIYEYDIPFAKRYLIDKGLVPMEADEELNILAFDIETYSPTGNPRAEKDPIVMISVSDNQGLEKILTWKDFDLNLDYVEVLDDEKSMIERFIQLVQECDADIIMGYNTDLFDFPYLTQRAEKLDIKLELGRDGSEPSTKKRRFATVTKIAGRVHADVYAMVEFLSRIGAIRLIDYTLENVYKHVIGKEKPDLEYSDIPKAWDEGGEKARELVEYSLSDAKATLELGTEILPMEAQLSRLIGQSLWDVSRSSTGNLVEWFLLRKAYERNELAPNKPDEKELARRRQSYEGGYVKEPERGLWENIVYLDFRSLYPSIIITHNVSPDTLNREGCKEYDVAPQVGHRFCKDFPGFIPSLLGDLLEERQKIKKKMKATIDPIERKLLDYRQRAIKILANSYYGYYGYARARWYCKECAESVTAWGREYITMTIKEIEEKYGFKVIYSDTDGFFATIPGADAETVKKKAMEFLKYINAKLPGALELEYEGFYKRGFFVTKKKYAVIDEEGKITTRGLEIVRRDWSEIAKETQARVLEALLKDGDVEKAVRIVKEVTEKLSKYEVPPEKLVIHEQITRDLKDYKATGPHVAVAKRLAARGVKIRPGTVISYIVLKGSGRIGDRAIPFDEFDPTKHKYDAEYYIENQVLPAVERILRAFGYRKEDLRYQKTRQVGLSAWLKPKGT
# B1: primer/template (mixed)
# DNA 1: GAGGTGGCGTCGGGTGGACGGGTGGATTGAAATTTAGGCTGGCAC
# DNA 2: GTGCCAGCCTAAATTTCAATCC
# B2: dsDNA (dsDNA)
# DNA 1: GAGGTGGCGTCGGGTGGACGGGTGGATTGAAATTTAGGCTGGCAC
# DNA 2: GTGCCAGCCTAAATTTCAATCCACCCGTCCACCCGACGCCACCTC
# Columns and labels:
# Experiment in all cases: SPR; 100 mM NaCl; SPR (Biacore T100, SA chip, steady state): 20 mM Tris-HCl pH 8.8, 10 mM (NH4)2SO4, 0.1% Triton X-100, 100 or 300 mM NaCl; temperature not stated
# KODBR3thumb Pol = molecular target: T1, KODBR3thumb Pol; conditions: protein: recombinant; label: 3' biotin on template (immobilized); primer pairs with template 3' end; 5' overhang 23 nt of template
# KOD Pol WT = molecular target: T2, KOD Pol WT; conditions: protein: recombinant, tags: N-terminal His
# KODBR3exo Pol = molecular target: T3, KODBR3exo Pol; conditions: protein: recombinant; label: 3' biotin on template (immobilized); primer pairs with template 3' end; 5' overhang 23 nt of template
binder,measurement,setting,value
B1,Kd,KODBR3thumb Pol,12.5 nM
same,Kd,"KOD Pol WT; label: 3' biotin on template (immobilized), primer pairs with template 3' end, 5' overhang 23 nt of template",3.5 nM
same,Kd,KODBR3exo Pol,6.5 nM
B2,Kd,"KOD Pol WT; label: 3' biotin on strand 1 (immobilized), blunt",239 nM
TTTTTTTTTTTTTTTTTTTTTTTTTTTTTTTTTTTTTTTT (ssDNA) [ssDNA],Kd,KOD Pol WT; label: 5' biotin (immobilized),32.8 nM
